From the supplement of paper PMC7877785
± gives the uncertainty stated by the source.

Assay: self-splicing fitness, log relative to wild type (ln ratio); higher = more splicing; Tetrahymena group I intron in knt gene, E. coli kanamycin selection, DiMSum; sequences stand for … in CUCUCU…GGAGGGAAAAGUUAUCAGGCAUGCACCUGGUAGCUAGUCUUUAAACCAAUAGAUUGCAUCGGUUUAAAAGGCAAGACCGUCAAAUUGCGGGAAAGGGGUCAACAGCCGUUCAGUACCAAGUCUCAGGGGAAACUUUGAGAUGGCCUUGCAAAGGGUAUGGUAAUAAGCUGACGGACAUGGUCCUAACCACGCAGCCAAGUCCUAAGUCAACAGAUCUUCUGUUGAUAUGGAUGCAGUUCACAGACUAAAUGUCGGUCGGGGAAGAUGUAUUCUUCUCAUAAGAUAUAGUCGGACCUCUCCUUAAUGGGAGCUAGCGGAUGAAGUGAUGCAACACUGGAGCCGCUGGGAACUAAUUUGUAUGCGAAAGUAUAUUGAUUAGUUUUGGAGUACUCGUGGUCG
How it was run: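 The eight P1ex-region nucleotides of an intron in the knt kanamycin-resistance gene on pET-22b(+) were all randomised and the library put into E. coli BL21(DE3). Six replicate transformations were grown overnight at 37°C or 30°C on LB agar with or without 25 μg/mL kanamycin, together with 100 μg/mL carbenicillin, 50 μM IPTG and 0.2% rhamnose. Colonies were pooled and amplicon-sequenced on an Illumina HiSeq 2500. Fitness from DiMSum is the error-weighted combination of wild-type-normalised replicate fold changes, kanamycin over none.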

| Sequence | self-splicing fitness (ln) (30 °C) | self-splicing fitness (ln) (37 °C) |
| --- | --- | --- |
| GGAGAGCAAUAUUACGGUCA | -1.14 ± 0.2 | -2.11 ± 0.36 |
| GGAGAGCAAUAUUACGGUGG | -3.5 ± 0.28 | -2.25 ± 0.23 |
| GGAGAGCAAUAUUACGUCCG | -1.5 ± 0.1 | -0.937 ± 0.13 |
| GGAGAGCAAUAUUACGUGGG | -3.07 ± 0.44 | -2.28 ± 0.33 |
| GGAGAGCAAUAUUACGUUCC |  | -2 ± 0.28 |
| GGAUAGCAAUAUUACGAACU | -0.708 ± 0.15 | -0.573 ± 0.19 |
| GGAUAGCAAUAUUACGAAGC | -2.6 ± 0.48 |  |
| GGAUAGCAAUAUUACGACAA | -0.923 ± 0.12 | -0.865 ± 0.14 |
| GGAUAGCAAUAUUACGACUG | -0.737 ± 0.15 | -1.08 ± 0.19 |
| GGAUAGCAAUAUUACGAGCA | -1.26 ± 0.26 | -1.05 ± 0.14 |
| GGAUAGCAAUAUUACGAGGA | -3.28 ± 0.25 | -1.15 ± 0.17 |
| GGAUAGCAAUAUUACGAGUU | -1.59 ± 0.1 | -1.64 ± 0.14 |
| GGAUAGCAAUAUUACGAUUG | -1.55 ± 0.15 | -1.44 ± 0.24 |
| GGAUAGCAAUAUUACGAUUU | 0.317 ± 0.072 | 0.459 ± 0.09 |
| GGAUAGCAAUAUUACGCCCA | -1.36 ± 0.49 | -1.39 ± 0.33 |
| GGAUAGCAAUAUUACGCCCU | -2.08 ± 0.14 | -2.27 ± 0.17 |
| GGAUAGCAAUAUUACGCGUA | -0.646 ± 0.21 | -2.02 ± 0.18 |
| GGAUAGCAAUAUUACGCUUG | -1.81 ± 0.12 | -1.11 ± 0.16 |
| GGAUAGCAAUAUUACGGAUA |  | -1.56 ± 0.26 |
| GGAUAGCAAUAUUACGGCCA | -0.925 ± 0.19 | -0.211 ± 0.18 |
| GGAUAGCAAUAUUACGUACU | -0.979 ± 0.096 | 0.0901 ± 0.14 |
| GGAUAGCAAUAUUACGUAUA | -2.53 ± 0.2 | -0.564 ± 0.15 |
| GGAUAGCAAUAUUACGUCAA | -1.09 ± 0.19 | 0.00829 ± 0.15 |
| GGAUAGCAAUAUUACGUGGA | -3.31 ± 0.21 | -2.47 ± 0.21 |
| GGAUAGCAAUAUUACGUGGG |  | -0.24 ± 0.16 |

| Sequence | self-splicing fitness (ln) (30 °C) | self-splicing fitness (ln) (37 °C) |
| --- | --- | --- |
| GGAUAGCAAUAUUACGUGUA | -2.33 ± 0.13 | -2.18 ± 0.12 |
| GGAUAGCAAUAUUACGUGUC | -3.16 ± 0.28 |  |
| GGAUAGCAAUAUUACGUGUU | -3.31 ± 0.17 | -1.63 ± 0.14 |
| GGCAAGCAAUAUUACGACGC | -0.177 ± 0.14 | -0.105 ± 0.17 |
| GGCAAGCAAUAUUACGACGG | -2.85 ± 0.16 | -2.72 ± 0.2 |
| GGCAAGCAAUAUUACGAUGG | -2.61 ± 0.19 | -1.52 ± 0.16 |
| GGCAAGCAAUAUUACGCCGA | -2.14 ± 0.32 | -0.337 ± 0.25 |
| GGCAAGCAAUAUUACGCCUC | -2.03 ± 0.13 | -1.34 ± 0.12 |
| GGCAAGCAAUAUUACGCCUU | -2.83 ± 0.22 | -0.231 ± 0.16 |
| GGCAAGCAAUAUUACGGGGU | -2.5 ± 0.099 | -0.776 ± 0.094 |
| GGCAAGCAAUAUUACGGUCA | -0.571 ± 0.09 | 0.329 ± 0.096 |
| GGCAAGCAAUAUUACGGUUU | -0.376 ± 0.052 | 0.232 ± 0.069 |
| GGCAAGCAAUAUUACGUACC | -1.35 ± 0.065 | -0.299 ± 0.083 |
| GGCAAGCAAUAUUACGUCAC | -3.31 ± 0.22 | -0.36 ± 0.17 |
| GGCAAGCAAUAUUACGUCCU | -1.39 ± 0.088 | -1.54 ± 0.11 |
| GGCAAGCAAUAUUACGUCGC | -2.66 ± 0.14 | -1.38 ± 0.13 |
| GGCAAGCAAUAUUACGUCGG | -3.42 ± 0.2 | -2.47 ± 0.32 |
| GGCAAGCAAUAUUACGUUGA | -0.666 ± 0.066 | -0.307 ± 0.092 |
| GGCCAGCAAUAUUACGACAG | -4.12 ± 0.25 | -3.08 ± 0.35 |
| GGCCAGCAAUAUUACGACCG | -1.21 ± 0.11 | -0.323 ± 0.14 |
| GGCCAGCAAUAUUACGAGCC | -2.63 ± 0.26 | -2.72 ± 0.29 |
| GGCCAGCAAUAUUACGAUCC | -0.826 ± 0.11 | 0.0889 ± 0.14 |
| GGCCAGCAAUAUUACGAUCU | -0.383 ± 0.06 | -0.133 ± 0.078 |
| GGCCAGCAAUAUUACGCAGG |  | -2.78 ± 0.22 |
| GGCCAGCAAUAUUACGCGCG | -0.959 ± 0.089 | -0.284 ± 0.12 |

| Sequence | self-splicing fitness (ln) (30 °C) | self-splicing fitness (ln) (37 °C) |
| --- | --- | --- |
| GGCCAGCAAUAUUACGCUAG | -3.21 ± 0.21 | -2.47 ± 0.3 |
| GGCCAGCAAUAUUACGCUCA | -0.637 ± 0.13 | -0.183 ± 0.13 |
| GGCCAGCAAUAUUACGCUCG | -2.5 ± 0.15 | -0.863 ± 0.13 |
| GGCCAGCAAUAUUACGCUUC | -1.98 ± 0.15 | -0.344 ± 0.11 |
| GGCCAGCAAUAUUACGGAGG | -2.39 ± 0.11 | -1.14 ± 0.14 |
| GGCCAGCAAUAUUACGGAUC | -0.753 ± 0.092 | -0.347 ± 0.11 |
| GGCCAGCAAUAUUACGGUCC | -3.11 ± 0.21 | -2.45 ± 0.37 |
| GGCCAGCAAUAUUACGUAGA | -1.59 ± 0.12 | -1.04 ± 0.15 |
| GGCCAGCAAUAUUACGUCCG | -3.34 ± 0.21 | -0.963 ± 0.14 |
| GGCCAGCAAUAUUACGUCUA | -2.43 ± 0.084 | -1.29 ± 0.078 |
| GGCCAGCAAUAUUACGUCUU | -0.247 ± 0.081 | -0.523 ± 0.082 |
| GGCCAGCAAUAUUACGUGGG | -4.31 ± 0.21 | -3.32 ± 0.26 |
| GGCCAGCAAUAUUACGUUGG | -3.91 ± 0.25 | -3.17 ± 0.25 |
| GGCCAGCAAUAUUACGUUUA | -2.69 ± 0.19 | -1.87 ± 0.16 |
| GGCGAGCAAUAUUACGAAUC | -1.03 ± 0.051 | -0.145 ± 0.067 |
| GGCGAGCAAUAUUACGAUAC | -2.02 ± 0.37 | -0.796 ± 0.35 |
| GGCGAGCAAUAUUACGAUCC | -0.772 ± 0.092 | -0.128 ± 0.12 |
| GGCGAGCAAUAUUACGAUGA | -2.08 ± 0.17 | -2.93 ± 0.33 |
| GGCGAGCAAUAUUACGCACA | -0.586 ± 0.082 | -0.225 ± 0.12 |
| GGCGAGCAAUAUUACGCAUC | -2.15 ± 0.15 | -1.05 ± 0.14 |
| GGCGAGCAAUAUUACGCAUU | -1.13 ± 0.11 | -0.998 ± 0.14 |
| GGCGAGCAAUAUUACGCCGG | -3.4 ± 0.35 | -0.739 ± 0.33 |
| GGCGAGCAAUAUUACGCCUG | -1.97 ± 0.43 |  |
| GGCGAGCAAUAUUACGCGUA | -1.09 ± 0.17 | -0.484 ± 0.15 |
| GGCGAGCAAUAUUACGGAUA |  | -2.08 ± 0.37 |

| Sequence | self-splicing fitness (ln) (30 °C) | self-splicing fitness (ln) (37 °C) |
| --- | --- | --- |
| GGCGAGCAAUAUUACGGCAC | -1.36 ± 0.13 | -0.093 ± 0.14 |
| GGCGAGCAAUAUUACGGCGC | -2.51 ± 0.29 | -2.52 ± 0.37 |
| GGCGAGCAAUAUUACGGGAG | -3.99 ± 0.34 | -1.33 ± 0.23 |
| GGCGAGCAAUAUUACGGGCA | -0.695 ± 0.15 | -0.194 ± 0.15 |
| GGCGAGCAAUAUUACGGGUG | -2.31 ± 0.12 | -1.96 ± 0.14 |
| GGCGAGCAAUAUUACGGUGU | -2.02 ± 0.25 | -1.55 ± 0.17 |
| GGCGAGCAAUAUUACGUCGG | -3.78 ± 0.33 | -2.13 ± 0.28 |
| GGCGAGCAAUAUUACGUGCU | -3.19 ± 0.34 |  |
| GGCGAGCAAUAUUACGUGUU | -2.5 ± 0.12 | -1.39 ± 0.14 |
| GGCUAGCAAUAUUACGAACG | -0.636 ± 0.066 | -0.168 ± 0.094 |
| GGCUAGCAAUAUUACGAAGU | -2.13 ± 0.26 | -1.56 ± 0.44 |
| GGCUAGCAAUAUUACGAAUC | 0.199 ± 0.18 | 0.239 ± 0.19 |
| GGCUAGCAAUAUUACGACAA | -0.713 ± 0.29 | -0.198 ± 0.33 |
| GGCUAGCAAUAUUACGACGA | -1.31 ± 0.15 | -1.08 ± 0.17 |
| GGCUAGCAAUAUUACGACUA | -0.758 ± 0.091 | -0.454 ± 0.089 |
| GGCUAGCAAUAUUACGACUU | -0.0915 ± 0.084 | -0.0421 ± 0.11 |
| GGCUAGCAAUAUUACGAGCU | -2.9 ± 0.47 | -1.65 ± 0.31 |
| GGCUAGCAAUAUUACGAGUU | -1.95 ± 0.11 | -0.414 ± 0.11 |
| GGCUAGCAAUAUUACGAUAC | -1.71 ± 0.16 | -0.0528 ± 0.14 |
| GGCUAGCAAUAUUACGCAAC | -1.61 ± 0.11 | -0.72 ± 0.12 |
| GGCUAGCAAUAUUACGCACA | -0.263 ± 0.12 | 0.1 ± 0.16 |
| GGCUAGCAAUAUUACGCCGG | -2.34 ± 0.21 | -2.27 ± 0.35 |
| GGCUAGCAAUAUUACGCGUC | -2.06 ± 0.24 | 0.0137 ± 0.14 |
